The text below walks through data of patent publication US20080260729A1 (ZENYTH OPERATIONS, published 2008).

Some results are limits rather than exact numbers.

In one test the target is T1, human VEGF-B10-108 (human, UniProt P49765 31-129).
T1 construct: also called VB108
T1 sequence: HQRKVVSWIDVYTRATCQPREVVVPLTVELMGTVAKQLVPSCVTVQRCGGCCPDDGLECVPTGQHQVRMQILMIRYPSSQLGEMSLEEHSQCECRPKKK
Briefly: SPR (BIAcore 2000), VEGF-B10-108 amine-coupled on chip, mAb injected 125-0.98 nM. How it is done: A Biosensor-based approach was used for kinetic analysis of mAb binding to target VEGF-B using a BIAcore™ 2000 surface plasmon resonance instrument (Biacore AB, Uppsala, Sweden). A biosensor chip was activated for covalent coupling of VEGF-B using N-ethyl-N′-(3-dimethylaminopropyl)-carbodiimide hydrochloride (EDC) and N-hydroxysuccinimide (NHS) according to the supplier's (Biacore AB, Uppsala, Sweden) instructions. A solution of 5 μg/ml VEGF-B₁₀₋₁₀₈ in 20 mM sodium acetate, pH 4.8 was prepared and an aliquot (35 μl) was injected at a flow rate of 2 μl/min to achieve approximately 500-600 response units (RU) of coupled protein. Finally, 1 M ethanolamine was injected as a blocking agent.
For kinetics measurements, two-fold serial dilutions of test antibody starting at 125n M to 0.98 nM were injected in BIAcore™ buffer (20 mM HEPES, pH 7.8, 0.15 M NaCl, 3.4 mM EDTA, 0.005% Tween-20) with 1 mg/ml bovine serum albumin (BSA) at 25° C. at a flow rate of 15 μl/min. Simultaneous analysis of association (kₐ) and dissociation (kd) rate constants using BIAevaluation™ V3.02 software (Biacore AB, Uppsala, Sweden) was used to determine the equilibrium binding constant (KD).
For orientation: SPR reads the build-up and loss of mass on a sensor chip optically.

The target in test [1] is T2, 6×His.mVEGF-B10-108 (murine, UniProt P49766 31-129).
T2 construct: not shown: additional 16 N-terminal amino acids with 6xHis tag and Genenase I cleavage site
T2 sequence: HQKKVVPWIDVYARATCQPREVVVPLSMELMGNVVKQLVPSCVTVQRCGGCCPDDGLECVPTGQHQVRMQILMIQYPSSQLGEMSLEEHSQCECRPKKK
Description: ELISA on plate-bound 6×His.mVEGF-B10-108. How it is done:
(§1) Monoclonal antibodies raised against hVEGF-B were tested for cross-reactivity with mVEGF-B using a standard ELISA format. mAbs were incubated with plate bound hVEGF-B₁₀₋₁₀₈ or 6×His.mVEGF-B₁₀₋₁₀₈ at a concentration of 1.25 μg/ml and bound mAb visualized using a HRP-conjugated secondary reagent and TMB substrate.
(ELISA stands for enzyme-linked immunosorbent assay.)

The target in test [2] is T2, 6×His.mVEGF-B10-108. Briefly: ELISA on plate-bound antigen, HRP secondary, TMB. The procedure:
as §1

Test [3] has as its target human VEGF-B (Example 10, form not stated) (human) (UniProt P49765). Description: SPR (BIAcore), immobilised human VEGF-B, Fab injected at several concentrations.
For test [4] the target is unchanged. Briefly: competition ELISA, plate bound human VEGF-B, soluble VEGF-B titrated.
The target is the same in test [5]. Briefly: BIAcore dissociation rate, ratio.
Test [6] has the same target. Description: SPR (BIAcore), immobilised human VEGF-B.

B1: murine monoclonal antibody 1C6 (antibody, V domains shown)
VH: QVQLQQSGPELVKPGASVRISCKASGYTFTTFYIHWVKQRPGQGLEWIAWFYPGNVNTNYNEKFKDKATLTADKSSSAAYLQLNSLTSEDSAVYFCTRSPYYGYVFDFWGQGTTLTVSS
VL: DIVMTQSHKFMSTSVGDRVSITCKASQDVGSAVAWYQQKPGQSPKLLIYWASTRHTGVPDRFTGSGSGTDFTFTISNVQSEDLADYFCQQYSSSLTFGAGATKLEL
notes: Whole murine mAb from hybridoma; also called mAb 1C6
For the molecule B1, in the test with human VEGF-B10-108, the Kd (as a rule, the constant that tells how readily two partners part at equilibrium) was determined as 2.82 nM; the koff (in general, the rate constant with which the complex falls apart) came to 0.000153 s⁻¹; the kon – broadly, a measure of how fast the partners come together – is 54500 M⁻¹ s⁻¹. Moreover, the binding result with 6×His.mVEGF-B10-108 [1] is recorded as “binds”.

B2: murine monoclonal antibody 4E12 (antibody, V domains shown)
VH: QVQPQQPGAELVKPGASVKMSCKASGDTFTNSWIGWVTQRPGQGLEWIGDIFPGSGHTNYNEKFKNRATLTVDTSSSTAYMLLSSLTSDDSAVYYCVIENYAWFAYWGQGTLVTVSA
VL: DIVMTQSQKFMSSSVGDRVSVTCKASQNVNTNVAWYQQKQGQSPRPLIYSASSRCSGVPDRFTGSGFGTDFTLTISNVQSEDLAEYFCQQYHSFPLTFGAGAKLDLK
notes: Whole murine mAb from hybridoma; also called mAb 4E12
Take B2: the binding result with 6×His.mVEGF-B10-108 [2] is given as “no binding (tested: 1.25 µg/ml)”. In addition, in the test with human VEGF-B10-108, the Kd was 2.71 nM, the koff was found to be 0.000132 s⁻¹ and the kon stood at 48700 M⁻¹ s⁻¹.

B3: 2H10 murine Fab (Fab, V domains shown)
VH: QVQLQQPGTELVKPGASVKLSCKASGYTFTGFWIHWVKQRPGQGLEWIGHINPGNGGTNYNEKFKRMATLTVDKSSSTAYMQLSSLTSEDSAVYYCARSYSNYVRAMDYWGQGTSVTVSS
VL: EIQMTQTTSSLSASLGDRVTISCRASQDISNFLNWYQQKPDGTVKLLIYYTSTLHSGVPSRFSGSGSGTDYSLTISNLEQEDIATYFCQQGKTLPPTFGGGTKLEIK
In test [3], B3 returned a Kd of 0.115 nM.

B4: mouse-human chimeric Fab (2H10) (Fab, V domains shown)
VH: QVQLQQPGTELVKPGASVKLSCKASGYTFTGFWIHWVKQRPGQGLEWIGHINPGNGGTNYNEKFKRMATLTVDKSSSTAYMQLSSLTSEDSAVYYCARSYSNYVRAMDYWGQGTSVTVSS
VL: EIQMTQTTSSLSASLGDRVTISCRASQDISNFLNWYQQKPDGTVKLLIYYTSTLHSGVPSRFSGSGSGTDYSLTISNLEQEDIATYFCQQGKTLPPTFGGGTKLEIK
Regarding B4, the Relative VEGF-B binding affinity (IC50 CDR-Fab variant/IC50 murine-human chimera) in test [4] was 1. Also, the Relative koff (koff CDR-Fab variant/koff murine-human chimera) in test [5] was found to be 1.

B5: murine monoclonal antibody 2H10 (antibody, V domains shown)
VH: QVQLQQPGTELVKPGASVKLSCKASGYTFTGFWIHWVKQRPGQGLEWIGHINPGNGGTNYNEKFKRMATLTVDKSSSTAYMQLSSLTSEDSAVYYCARSYSNYVRAMDYWGQGTSVTVSS
VL: EIQMTQTTSSLSASLGDRVTISCRASQDISNFLNWYQQKPDGTVKLLIYYTSTLHSGVPSRFSGSGSGTDYSLTISNLEQEDIATYFCQQGKTLPPTFGGGTKLEIK
notes: Whole murine mAb from hybridoma; also called mAb 2H10
In the test with human VEGF-B10-108, B5 had a Kd of 0.18 nM, a dissociation rate constant (koff) of 6.77e-05 s⁻¹ and a kon of 385000 M⁻¹ s⁻¹. The binding result with 6×His.mVEGF-B10-108 [1] was “binds”.

B6: 2H10 CDR-grafted human germline Fab (CDR-Fab) (Fab, V domains shown)
VH: QVQLVQSGAEVKKPGASVKVSCKASGYTFTGFWIHWVRQAPGQGLEWMGHINPGNGGTNYNEKFKRRVTMTRDTSISTAYMELSRLRSDDTAVYYCARSYSNYVRAMDYWGQGTLVTVSS
VL: DIQMTQSPSSLSASVGDRVTITCRASQDISNFLNWYQQKPGKAPKLLIYYTSTLHSGVPSRFSGSGSGTDFTLTISSLQPEDFATYYCQQGKTLPPTFGGGTKVEIK
On to B6, for which the Relative VEGF-B binding affinity (IC50 CDR-Fab variant/IC50 murine-human chimera) in test [4] was 2.25. The same molecule gave a Kd in test [3] of 0.66 nM. For the same molecule, the Relative koff (koff CDR-Fab variant/koff murine-human chimera) in test [5] amounted to 3.7.

B7: CDR-Fab framework variant H73 (Fab, V domains shown)
VH: QVQLVQSGAEVKKPGASVKVSCKASGYTFTGFWIHWVRQAPGQGLEWMGHINPGNGGTNYNEKFKRRVTMTRDKSISTAYMELSRLRSDDTAVYYCARSYSNYVRAMDYWGQGTLVTVSS
VL: DIQMTQSPSSLSASVGDRVTITCRASQDISNFLNWYQQKPGKAPKLLIYYTSTLHSGVPSRFSGSGSGTDFTLTISSLQPEDFATYYCQQGKTLPPTFGGGTKVEIK
In test [6], B7 yielded a Kd of 0.337 nM and a fold of KD against the 2H10 murine Fab of under 3 fold. In test [4], this molecule registered a Relative VEGF-B binding affinity (IC50 CDR-Fab variant/IC50 murine-human chimera) of 1.42. The Relative koff (koff CDR-Fab variant/koff murine-human chimera) in test [5] was 1.4.
